Data as given in patent US7405286B2, “Stars—A muscle-specific actin-binding protein” (The Board of Regents of the University of Texas System, priority 2002, dated 2008).
“Also recorded” adds a separate entry of the source.

B1: N279: STARS deletion mutant lacking residues from the carboxy-terminus into the conserved region (protein)
chain: MAPGEKESGEGPAKSALRKIRTATLVISLARGWQQWANENSIRQAQEPTGWLPGGTQDSPQAPKPITPPTSHQKAQSAPKSPPRLPEGHGDGQSSEKAPEVSHIKKKEVSKTVVSKTYERGGDVSHLSHRYERDAGVLEPGQPENDIDRILHSHGSPTRRRKCANLVSELTKGWRVMEQEEPTWRSDSVDTEDSGYGGEAEERPEQDGVQVAVVRIKRPLPSQVNRFTEKLNCKAQQKYSPVGNLKGRWQQWADEHIQSQKLNPFSEEFDYELAMSTRL
modifications: left off: small tags and cut ends
notes: STARS deletion mutant lacking residues from the carboxy-terminus into the conserved region
B2: N304: STARS deletion mutant lacking residues from the carboxy-terminus into the conserved region (protein)
chain: MAPGEKESGEGPAKSALRKIRTATLVISLARGWQQWANENSIRQAQEPTGWLPGGTQDSPQAPKPITPPTSHQKAQSAPKSPPRLPEGHGDGQSSEKAPEVSHIKKKEVSKTVVSKTYERGGDVSHLSHRYERDAGVLEPGQPENDIDRILHSHGSPTRRRKCANLVSELTKGWRVMEQEEPTWRSDSVDTEDSGYGGEAEERPEQDGVQVAVVRIKRPLPSQVNRFTEKLNCKAQQKYSPVGNLKGRWQQWADEHIQSQKLNPFSEEFDYELAMSTRLHKGDEGYGRPKEGTKTAERAKRAEE
modifications: left off: small tags and cut ends
notes: as for B1
B3: N323: STARS deletion mutant lacking residues from the carboxy-terminus into the conserved region (protein)
chain: MAPGEKESGEGPAKSALRKIRTATLVISLARGWQQWANENSIRQAQEPTGWLPGGTQDSPQAPKPITPPTSHQKAQSAPKSPPRLPEGHGDGQSSEKAPEVSHIKKKEVSKTVVSKTYERGGDVSHLSHRYERDAGVLEPGQPENDIDRILHSHGSPTRRRKCANLVSELTKGWRVMEQEEPTWRSDSVDTEDSGYGGEAEERPEQDGVQVAVVRIKRPLPSQVNRFTEKLNCKAQQKYSPVGNLKGRWQQWADEHIQSQKLNPFSEEFDYELAMSTRLHKGDEGYGRPKEGTKTAERAKRAEEHIYREMMDMCFIICTMARH
modifications: left off: small tags and cut ends
notes: as for B1
B4: Del234-279: larger internal STARS deletion mutant within the conserved region (protein)
chain: MAPGEKESGEGPAKSALRKIRTATLVISLARGWQQWANENSIRQAQEPTGWLPGGTQDSPQAPKPITPPTSHQKAQSAPKSPPRLPEGHGDGQSSEKAPEVSHIKKKEVSKTVVSKTYERGGDVSHLSHRYERDAGVLEPGQPENDIDRILHSHGSPTRRRKCANLVSELTKGWRVMEQEEPTWRSDSVDTEDSGYGGEAEERPEQDGVQVAVVRIKRPLPSQVNRFTEKLNCHKGDEGYGRPKEGTKTAERAKRAEEHIYREMMDMCFIICTMARHRRDGKIQVTFGDLFDRYVRISDKVVGILMRARKHGLVDFEGEMLWQGRDDHV
modifications: left off: small tags and cut ends
notes: larger internal STARS deletion mutant within the conserved region
B5: C96: STARS deletion mutant within the conserved region (protein)
chain: HKGDEGYGRPKEGTKTAERAKRAEEHIYREMMDMCFIICTMARHRRDGKIQVTFGDLFDRYVRISDKVVGILMRARKHGLVDFEGEMLWQGRDDHV
modifications: left off: small tags and cut ends
notes: STARS deletion mutant within the conserved region
B6: N346: STARS deletion mutant lacking residues from the carboxy-terminus into the conserved region (protein)
chain: MAPGEKESGEGPAKSALRKIRTATLVISLARGWQQWANENSIRQAQEPTGWLPGGTQDSPQAPKPITPPTSHQKAQSAPKSPPRLPEGHGDGQSSEKAPEVSHIKKKEVSKTVVSKTYERGGDVSHLSHRYERDAGVLEPGQPENDIDRILHSHGSPTRRRKCANLVSELTKGWRVMEQEEPTWRSDSVDTEDSGYGGEAEERPEQDGVQVAVVRIKRPLPSQVNRFTEKLNCKAQQKYSPVGNLKGRWQQWADEHIQSQKLNPFSEEFDYELAMSTRLHKGDEGYGRPKEGTKTAERAKRAEEHIYREMMDMCFIICTMARHRRDGKIQVTFGDLFDRYVRISDK
modifications: left off: small tags and cut ends
notes: as for B1

How the values were obtained:
[1] = system: SM22 promoter; experiment: SM22-luciferase reporter assay in transiently transfected COS cells; type: cell-based; settings: for effect on SRF / SM22 promoter activation by STARS, in words (discussion): COS cells transfected with STARS
From the text: STARS Expression Plasmids. STARS expression constructs were generated using the pcDNA3.1 mammalian expression vector (Invitrogen) which was modified to contain an amino-terminal Myc-tag. Constitutively active RhoA (L63) and C3 transferase in Prk5 were generously provided by Dr. Alan Hall (University College, London, United Kingdom). The SM22-luciferase reporter 1343 bp promoter has been previously described (Li et al., 1995). The smooth muscle α actin-luciferase reporter contained the 4 kb promoter region ligated into the pBL3basic vector (Promega). The ANF reporter contained the 638 bp promoter region (a generous gift from Dr. Mona Nemer, Universite de Montreal, Montreal, Quebec, Canada). The 4× cfos reporter contained four tandem copies of the cfos CArG box with flanking sequences, as described (Chang et al., 2001). CMV-lacZ (Promega) was used as an internal control for transfection efficiency.
(§1) Transient Transfections, Reporter Assays and Immunofluorescence Microscopy. COS cells were maintained in DMEM with 10% FBS. Eighteen hours after plating, the medium was changed to serum-free medium and transfections were performed at 50% confluency using FuGENE reagent-6 (Roche Molecular Biochemicals) following manufacturer's instructions. Each transfection used 0.15 μg of plasmid DNA for the reporter assays, and 0.5-1.0 μg immunohistochemistry. Cytochalasin D 2 μM (Sigma-Aldrich), and Y-27632 75 μM (Tocris) were added directly just after transfection. Latrunculin B 0.5 μM (dissolved in 10% ethanol, Calbiochem) was added 12 hr after transfection and 10% ethanol (final concentration 0.01%) was added to control wells. Cells were harvested 36 hr after transfection and their luciferase and β-galactosidase activity were measured.

[2] = system: F-actin; experiment: Immunofluorescence / Phalloidin-TRITC staining of transfected COS cells; type: cell-based; settings: for stress fibers observed: STARS-transfected COS cells, 2 μM CD or 0.5 μM LB, data not shown; for association with F-actin / actin stress fibers / bundling of actin stress fibers: transfected COS cells, Myc-tagged proteins
Method: as §1
For measuring immunofluorescence, cells were rinsed with PBS and fixed in 4% paraformaldehyde for 10 min on ice. After rinsing with PBS, COS cells were incubated in 0.1% Triton X-100 in PBS for 5 min on ice. For rat neonatal cardiomyocytes, 1% Triton X-100 in PBS was used. Cells were blocked for 20 min at room temperature in 0.5% BSA in PBS for COS cells and in 1% BSA plus 3% goat serum in PBS for rat cardiomyocytes. Then, cells were incubated with first antibody diluted in 0.5% BSA in PBS for 30-60 min at room temperature or overnight at 4° C. Anti c-myc monoclonal antibody 9E10 (Santa Cruz) was used at a 1:200 dilution. Other antibodies were anti α-actinin monoclonal antibody (1:400; Sigma-Aldrich), α-tubulin antibody (1:2000; Sigma-Aldrich) and anti-vimentin antibody (1:500; Sigma-Aldrich). Secondary antibodies were anti mouse/rabbit IgG FITC or Texas red (Vector) used at a 1:200 dilution incubated with or without Phalloidin-TRITC (1:500; Sigma Aldrich).

[3] = system: actin; experiment: Co-immunoprecipitation of Myc-tagged proteins with actin in COS cells; type: binding; settings: anti-Myc immunoprecipitation, anti-actin Western blot
Method: Western Blot and Co-immunoprecipitation Assay. Immunoprecipitation and western blot analysis was performed as described previously (Lu et al., 2000). For immunoprecipitation, cells were incubated with 1 μg anti c-myc polyclonal antibody A14 (Santa Cruz). Western blots were performed with anti-actin monoclonal antibody C4 (1:100; Roche Molecular Biochemicals) or anti c-myc monoclonal antibody 9E10 (1:1000; Santa Cruse) followed by incubation with secondary antibody HRP-conjugated anti mouse-IgG (Santa Cruse, Vector). To detect signals, blots were incubated with ECL (Santa Cruz) for 1 min, and exposed to film (Eastman Kodak Co).

| Molecule | co-immunoprecipitation with actin [3] | association with F-actin / actin stress fibers [2] | bundling of actin stress fibers [2] | also measured |
| --- | --- | --- | --- | --- |
| C=C1[C@@H](C)[C@H]2[C@H](Cc3ccccc3)NC(=O)[C@]23[C@H](OC(C)=O)/C=C/[C@@](C)(O)C(=O)[C@@H](C)C/C=C/[C@H]3[C@@H]1O [CD, cytochalasin D, reference compound] | – | – | – | increase of SM22 promoter activity by the agent itself ([1]; COS cells, 2 μM CD, without STARS): 8 fold; stress fibers observed [2]: only short fragments of disrupted stress fibers |
| C/C1=C/C(=O)O[C@@H]2C[C@@H](CC[C@H](C)/C=C\CC1)O[C@@](O)([C@@H]1CSC(=O)N1)C2 [LB, latrunculin B, reference compound] | – | – | – | effect on SRF / SM22 promoter activation by STARS, in words (discussion) [1]: inhibit the activity of STARS; SM22-luciferase activity under LB treatment ([1]; COS cells, 0.5 μM LB, even in cells transfected with STARS): abolished; stress fibers observed [2]: only short fragments of disrupted stress fibers |
| C[C@@H](N)[C@H]1CC[C@H](C(=O)Nc2ccncc2)CC1 [Y-27632, reference compound] | – | – | – | effect on SRF / SM22 promoter activation by STARS, in words (discussion) [1]: only partially inhibits; effect on SRF / SM22 promoter activation by STARS, in words (discussion) ([1]; listed as Y27632): decreased SM22 promoter activity significantly; reduction of the stimulatory activity of STARS on the SM22 promoter ([1]; COS cells, Y-27632 75 μM): 55% |
| RhoA L63: constitutively active RhoA mutant, expression vector [reference compound] | – | – | – | activation of the SM22 promoter ([1]; COS cells, STARS and RhoA L63 together): higher levels; activation of the SM22 promoter ([1]; COS cells, STARS or RhoA (L63) expression vector alone): comparable levels |
| B1 | did not bind actin | did not affect the association with F-actin | abolished the ability of STARS to bundle actin stress fibers | – |
| B2 | did not bind actin | did not affect the association with F-actin | abolished the ability of STARS to bundle actin stress fibers | – |
| B3 | did not bind actin | did not affect the association with F-actin | abolished the ability of STARS to bundle actin stress fibers | – |
| B4 | failed to co-immunoprecipitate | able to associate with F-actin | lost the ability to bundle actin fibers | – |
| B5 | – | did not affect the association with F-actin; also recorded: just associates with actin stress fibers | abolished the ability of STARS to bundle actin stress fibers | – |
| B6 | did not bind actin | did not affect the association with F-actin | abolished the ability of STARS to bundle actin stress fibers | – |
